Source: PMC9352680, “A comprehensive thermodynamic model for RNA binding by the Saccharomyces cerevisiae Pumilio protein PUF4”

T1: PUF4 RNA-binding domain (Saccharomyces cerevisiae, UniProt P25339 537-888)
T1 sequence: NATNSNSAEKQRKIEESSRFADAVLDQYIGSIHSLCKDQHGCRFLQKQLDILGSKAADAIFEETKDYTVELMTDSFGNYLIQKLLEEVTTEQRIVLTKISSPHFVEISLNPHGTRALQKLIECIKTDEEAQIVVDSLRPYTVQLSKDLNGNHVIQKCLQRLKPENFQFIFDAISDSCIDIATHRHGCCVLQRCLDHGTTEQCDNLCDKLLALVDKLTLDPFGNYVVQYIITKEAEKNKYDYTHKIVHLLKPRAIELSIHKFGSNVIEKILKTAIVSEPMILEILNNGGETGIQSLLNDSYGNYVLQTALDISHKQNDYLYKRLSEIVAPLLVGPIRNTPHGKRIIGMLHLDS

B1: Ic_S4_P4E.1_K4.1_C4.1_H4.1_A4.1_[A6T]_F4.1_[T8A]_T4.1 (ssRNA)
RNA: UUUGACAACUGAUCGUUCUUUCUUGUAUUUAAUUCUUUCUCGAUCAGUUGUCUUU
B2: Ic_S4_P4E.1_K4.1_C4.1_H4.1_A4.1_[A6C]_F4.1_[T8A]_[A9C]_T4.1 (ssRNA)
RNA: UUUGACAACUGAUCGUUCUUUCUUGUAUCUACUUCUUUCUCGAUCAGUUGUCUUU
B3: Ic_S4_P4E.1_K4.1_C4.1_H4.1_A4.1_[A6T]_[T7G]_F4.1_[T8G]_[A9T]_T4.1 (ssRNA)
RNA: UUUGACAACUGAUCGUUCUUUCUUGUAUUGGUUUCUUUCUCGAUCAGUUGUCUUU
B4: Ic_S4_P4E.1_K4.1_C4.1_H4.1_A4.1_[A6T]_[T7A]_F4.1_[T8G]_[A9C]_T4.1 (ssRNA)
RNA: UUUGACAACUGAUCGUUCUUUCUUGUAUUAGCUUCUUUCUCGAUCAGUUGUCUUU
B5: Ic_S4_P4E.1_K4.1_C4.1_H4.1_A4.1_F4.1_[T8C]_[A9C]_T4.1 (ssRNA)
RNA: UUUGACAACUGAUCGUUCUUUCUUGUAUAUCCUUCUUUCUCGAUCAGUUGUCUUU
B6: Ic_S4_P4E.1_K4.1_C4.1_H4.1_A4.1_[A6C]_F4.1_[T8A]_[A9G]_T4.1 (ssRNA)
RNA: UUUGACAACUGAUCGUUCUUUCUUGUAUCUAGUUCUUUCUCGAUCAGUUGUCUUU
B7: Ic_S4_P4E.1_K4.1_C4.1_H4.1_A4.1_[A6T]_[T7G]_F4.1_[T8C]_[A9C]_T4.1 (ssRNA)
RNA: UUUGACAACUGAUCGUUCUUUCUUGUAUUGCCUUCUUUCUCGAUCAGUUGUCUUU
B8: Ic_S4_P4E.1_K4.1_C4.1_H4.1_A4.1_[A6T]_[T7A]_F4.1_[T8C]_[A9C]_T4.1 (ssRNA)
RNA: UUUGACAACUGAUCGUUCUUUCUUGUAUUACCUUCUUUCUCGAUCAGUUGUCUUU
B9: Ic_S4_P4E.1_K4.1_C4.1_H4.1_A4.1_[A6T]_[T7A]_F4.1_[T8C]_T4.1 (ssRNA)
RNA: UUUGACAACUGAUCGUUCUUUCUUGUAUUACAUUCUUUCUCGAUCAGUUGUCUUU
B10: Ic_S4_P4E.1_K4.1_C4.1_H4.1_A4.1_[A6T]_[T7G]_F4.1_[A9G]_T4.1 (ssRNA)
RNA: UUUGACAACUGAUCGUUCUUUCUUGUAUUGUGUUCUUUCUCGAUCAGUUGUCUUU
B11: Ic_S4_P4E.1_K4.1_C4.1_H4.1_A4.1_[A6T]_F4.1_[T8C]_[A9C]_T4.1 (ssRNA)
RNA: UUUGACAACUGAUCGUUCUUUCUUGUAUUUCCUUCUUUCUCGAUCAGUUGUCUUU
B12: Ic_S4_P4E.1_K4.1_C4.1_H4.1_A4.1_[A6T]_[T7A]_F4.1_[T8A]_[A9T]_T4.1 (ssRNA)
RNA: UUUGACAACUGAUCGUUCUUUCUUGUAUUAAUUUCUUUCUCGAUCAGUUGUCUUU
B13: Ic_S4_P4E.1_K4.1_C4.1_H4.1_A4.1_[T7A]_F4.1_[T8C]_[A9G]_T4.1 (ssRNA)
RNA: UUUGACAACUGAUCGUUCUUUCUUGUAUAACGUUCUUUCUCGAUCAGUUGUCUUU
B14: Ic_S4_P4E.1_K4.1_C4.1_H4.1_A4.1_F4.1_[A9C]_T4.1 (ssRNA)
RNA: UUUGACAACUGAUCGUUCUUUCUUGUAUAUUCUUCUUUCUCGAUCAGUUGUCUUU
B15: Ic_S4_P4E.1_K4.1_C4.1_H4.1_A4.1_[A6T]_[T7C]_F4.1_[A9T]_T4.1 (ssRNA)
RNA: UUUGACAACUGAUCGUUCUUUCUUGUAUUCUUUUCUUUCUCGAUCAGUUGUCUUU
B16: Ic_S4_P4E.1_K4.1_C4.1_H4.1_A4.1_[A6T]_[T7C]_F4.1_[T8A]_[A9T]_T4.1 (ssRNA)
RNA: UUUGACAACUGAUCGUUCUUUCUUGUAUUCAUUUCUUUCUCGAUCAGUUGUCUUU
B17: Ic_S4_P4E.1_K4.1_C4.1_H4.1_A4.1_F4.1_T4.1 (ssRNA)
RNA: UUUGACAACUGAUCGUUCUUUCUUGUAUAUUAUUCUUUCUCGAUCAGUUGUCUUU
B18: Ic_S4_P4E.1_K4.1_C4.1_H4.1_A4.1_[A6C]_[T7A]_F4.1_[T8A]_[A9T]_T4.1 (ssRNA)
RNA: UUUGACAACUGAUCGUUCUUUCUUGUAUCAAUUUCUUUCUCGAUCAGUUGUCUUU
B19: Ic_S4_P4E.1_K4.1_C4.1_H4.1_A4.1_[T7G]_F4.1_[T8C]_[A9T]_T4.1 (ssRNA)
RNA: UUUGACAACUGAUCGUUCUUUCUUGUAUAGCUUUCUUUCUCGAUCAGUUGUCUUU
B20: Ic_S4_P4E.1_K4.1_C4.1_H4.1_A4.1_[A6T]_F4.1_[A9T]_T4.1 (ssRNA)
RNA: UUUGACAACUGAUCGUUCUUUCUUGUAUUUUUUUCUUUCUCGAUCAGUUGUCUUU
B21: Ic_S4_P4E.1_K4.1_C4.1_H4.1_A4.1_[A6T]_[T7C]_F4.1_[A9G]_T4.1 (ssRNA)
RNA: UUUGACAACUGAUCGUUCUUUCUUGUAUUCUGUUCUUUCUCGAUCAGUUGUCUUU
B22: Ic_S4_P4E.1_K4.1_C4.1_H4.1_A4.1_[T7C]_F4.1_[T8A]_[A9C]_T4.1 (ssRNA)
RNA: UUUGACAACUGAUCGUUCUUUCUUGUAUACACUUCUUUCUCGAUCAGUUGUCUUU
B23: Ic_S4_P4E.1_K4.1_C4.1_H4.1_A4.1_[T7G]_F4.1_[T8C]_[A9C]_T4.1 (ssRNA)
RNA: UUUGACAACUGAUCGUUCUUUCUUGUAUAGCCUUCUUUCUCGAUCAGUUGUCUUU

Biological target: T1, PUF4 RNA-binding domain
Experiment: Mg; RNA-MaP; 20 mM Na-HEPES pH 7.4, 30 mM KOAc, 0.75 mM MgCl2, 0.1% Tween-20, 5% glycerol, 0.1 mg/mL BSA, 2 mM DTT; 25 C; 0.0125-409.6 nM protein
Conditions: tags: N-His6-TEV cleaved; C-SNAP kept, Cy3B-labelled; label: tethered on chip by stalled RNA polymerase

| Binder | Kd |
| --- | --- |
| B1 | 21.1 nM |
| B2 | 34.1 nM |
| B3 | 1310 nM |
| B4 | 794 nM |
| B5 | 12.3 nM |
| B6 | 40.4 nM |
| B7 | 537 nM |
| B8 | 191 nM |
| B9 | 436 nM |
| B10 | 75.1 nM |
| B11 | 74.5 nM |
| B12 | 95 nM |
| B13 | 40.4 nM |
| B14 | 4.49 nM |
| B15 | 27.8 nM |
| B16 | 113 nM |
| B17 | 0.362 nM |
| B18 | 50.5 nM |
| B19 | 49.5 nM |
| B20 | 12.1 nM |
| B21 | 20.4 nM |
| B22 | 51.1 nM |
| B23 | 87.3 nM |
| UCUCUUUGUAUAAAAUCUCUU (ssRNA) [Ib_S1_P4E.1_K4.1_C4.1_H4.1_A4.1_[T7A]_F4.1_[T8A]_T4.1] | 22.1 nM |
| UCUCUUUGUACAUUGUCUCUU (ssRNA) [Ic_S1_P4E.1_K4.1_C4.1_H4.1_A4.1_[T5C]_F4.1_[A9G]_T4.1] | 3.75 nM |
